Experimental data reported in US11504374B2, “Compositions and methods for the treatment of a beta-catenin-associated disease or disorder” (Dicerna Pharmaceuticals, Inc., priority 2016, dated 2022).

Legend:
Hep3B tumors = assay: Tumor growth inhibition, mouse model bearing Hep3B tumors; format: in vivo; conditions: administered individually at 2 mg/kg
Description: (§1) 6-8 week old Hsd:Athymic Nude-Foxn1^nu mice (hereby referred to as nude mice) were injected subcutaneously with LS411N (5×10^6 cells), SW403 (5×10^6 cells), Ls174t (5×10^6 cells) or Hep3B (5×10^6 cells+matrigel) under the right shoulder. Tumor volume was measured twice a week to monitor tumor growth/suppression. Dosing was initiated when the tumors reached 200-250 mm^3. For tumor growth inhibition studies, animals were randomized and assigned to different cohorts and subjected to dosing cycles. BCAT1 or LNP was given intravenously via lateral tail vein at a total volume of 10 ml/kg. Trametinib was given orally at a volume of 10 mi/kg.
Combination therapy with BCAT1 and a nucleic acid inhibitor molecule that targets the c-Myc gene (“MYC1”) was also evaluated. MYC1 has a 25 base pair passenger strand and a 27 base pair guide strand that form a duplex region consisting of 25 base pairs, where the 3′ end of the passenger strand and 5′ end of the guide strand form a blunt end, and the 3′ end of the guide strand consists of a single-stranded, two-base overhang. FIG. 9. The MYC1 construct was formulated in EnCore LNP.

Ls174t liver metastases = assay: Survival in Ls174t CRC liver metastases model; format: in vivo, nude mice; conditions: for mice that died around day 48: 2 mg/kg or 2+2 mg/kg, start 3 weeks after implantation; for median survival: single agent 2 mg/kg, start 3 weeks after implantation of 2×10^6 cells
Description: (§2) Colorectal cancer (CRC) liver metastases models were generated by surgically implanting 1-2×10^6 cells in the spleen of nude mice after midline abdominal incision. After surgery, the abdominal incision was closed with 5-0 to 6-0 absorbable, nonbraided suture and the skin was closed with a single wound clip. Mice were anesthetized with isoflurane before initiating the surgery and during surgery. Buprenorphine was given preoperatively and post-operatively at 0.1 mg/kg subcutaneously for pain relief. Mice were held in a pathogen-free environment and all procedures involving animals were performed according to protocols approved by Dicerna Pharmaceuticals' Institutional Animal Care and Use Committee (Dicerna-IACUC).
We developed multiple CRC liver metastatic models by surgically implanting Ls174t and LS411N cells in spleen.
Before we evaluated the combination strategies in these CRC metastatic models, we ran a single agent Trametinib efficacy in the Ls174t liver metastatic model. Fewer number of Ls174t cells (1×10^6 cells) were implanted in the spleen this model to reduce the aggressiveness of the tumor progression. 18 days after the implantation, mice were randomly distributed into 3 groups and treated with PBS, Trametinib at 1 mg/kg or Trametinib at 3 mg/kg dose levels (qdx3, 3 cycles).
Next we ran a combination efficacy study in mice bearing Ls714t liver metastasis based on the doses used in the single agent efficacy studies. This time, the treatment was initiated 3 weeks after tumor implantation of 2×10^6 Ls174t cells. BCAT1, Placebo, and Trametinib were dosed at 2 mg/kg and the combination groups (Placebo+Trametinib or BCAT1+Trametinib) were dosed at 2+2 mg/kg.

SW403 tumors = assay: Tumor growth inhibition, subcutaneous SW403 colorectal tumors in nude mice; format: in vivo; conditions: for tumor growth inhibition: each agent alone, 0.3 mg/kg
Description: as §1
(§3) Human cell lines LS411N and SW403, Ls174t and Hep3B were obtained from ATCC (Manassas, Va.) and grown in RPMI/DMEM medium supplemented with 10% FBS. LS411N is a human colorectal cell line harboring mutations in the adenomatous polyposis coli (APC) and BRAF genes. APC is a component of the destruction complex in the Wnt signaling pathway. SW403 is a human colorectal cell line harboring mutations in the APC and KRAS genes. LS174t is a human colorectal cell line harboring mutations in the CTNNB1 and KRAS genes.
The combination treatment was also evaluated in a third CRC model (SW403) that has APC and KRAS mutations. As described for the other two models, we first checked the single agent Trametinib efficacy at different dose levels in these tumors and picked 0.3 mg/kg as the optimal dose for the combination study (FIG. 5C). BCAT1 was administered at the same dose (0.3 mg/kg) and used in combination with Trametinib.
In these CRC models, tumors generally develop resistance to Trametinib over time. To investigate this resistance, SW403 tumors were continuously treated with Trametinib at 3 mg/kg doses (qdx3, 3 mg/kg×3) until the tumors stopped responding to the treatment. Once the tumors stopped responding and became resistant to Trametinib treatment, we treated the tumors with a combination of BCAT1 and Trametinib (qdx3, 3mpk+ qdx3, 3mpk) (around Day 42). […]

LS411N tumors = assay: Tumor growth inhibition, subcutaneous LS411N colorectal tumors in nude mice; format: in vivo; conditions: for growth inhibition: single agent, 0.1 mg/kg; for tumor growth inhibition: 2 cycles
Description: as §1, §3
The single agent efficacy of BCAT1 was evaluated at different dose levels in different colorectal cancer models. […] FIG. 2A. […] FIG. 2C. […] Without intending to be bound by any theory, it appears that the Wnt pathway may be reactivated when treatment is stopped.
We then evaluated the single agent Trametinib in LS411N tumor bearing mice at different dose levels (3, 1 and 0.3 mg/kg) and selected […] as the dose to be used in the combination study. FIG. 5A. For BCAT1, a dose of 0.1 mg/kg was selected from the previous single agent efficacy studies to be used in combination with Trametinib to treat LS411N tumors. […] FIG. 5B.

[1] = tested on: multiple tumor types (xenograft, PDX, GEM tumors); assay: Delivery of LNP formulated BCAT1 nucleic acid payload to tumors in mouse models; format: in vivo
From the text: The BCAT1 construct was formulated in EnCore lipid nanoparticles (LNP).

RKO tumors = assay: Tumor growth inhibition, β-catenin/APC wild type RKO colorectal tumors; format: in vivo; conditions: qdx3, 3 mg/kg, 2 cycles
LS174t tumors = assay: Tumor growth inhibition, subcutaneous Ls174t colorectal tumors in nude mice; format: in vivo; conditions: qdx3, 3 mg/kg, 2 cycles
Description: as §1, §3
Combination therapy with BCAT1 and an MEK inhibitor (trametinib) was evaluated. Trametinib (99% purity) was dissolved in DMSO to make a clear solution of 5 mg/ml. […]

LS411N liver metastases = assay: Survival in LS411N CRC liver metastases model; format: in vivo, nude mice; conditions: qdx3, 3 mg/kg, 3 weeks
Description: as §2
We developed multiple CRC liver metastatic models by surgically implanting Ls174t and LS411N cells in spleen. 2-5 weeks after implanting 2×10^6 cells, the primary Ls174t tumors grown in the spleen spontaneously metastasized to the liver. To see if BCAT1 monotherapy will treat both primary and metastatic tumors and improve survival, 2 weeks after the tumor implantation, mice bearing Ls174t tumors were treated with BCAT1 or placebo at 3 mg/kg doses (qdx3, 3 mg/kg, 3 cycles). […] The […] survival time (“MST”) of the control-treated group is 31 days, whereas the MST of the BCAT1-treated group is 46 days).
Similarly, the mice with LS411N liver metastases were also treated with BCAT1 or controls (placebo or PBS) at the same dose levels for 3 weeks. Unlike the Ls174t tumors, LS411N tumors took a much longer time to metastasize to the liver after implanting 2×10^6 cells in the spleen. The treatment was initiated 18 days after the implantation of LS411N cells in the spleen. It took 112 days for all the control treated mice to die. […] It took about 6 months for all of the BCAT1-treated mice to die. In summary, BCAT treatment extended the survival of mice bearing LS411N liver metastasis by up to two-fold compared to the control treatment groups (MST of PBS/Placebo treatment groups is 99-102 days, whereas the MST of the BCAT1-treated group is 181 days).

[2] = start 18 days after implantation

MYC1: nucleic acid inhibitor molecule targeting the c-Myc gene; sense strand SEQ ID NO:5, antisense strand SEQ ID NO:6 (sense AGCUUUUUUGCCCUGCGUGACCAGA; antisense UCUGGUCACGCAGGGCAAAAAAGCUCC; listed as RNA, chemistry not given here)
growth inhibition (Hep3B tumors): 40%

CC(=O)Nc1cccc(-n2c(=O)n(C3CC3)c(=O)c3c(Nc4ccc(I)cc4F)n(C)c(=O)c(C)c32)c1 [Trametinib, trametinib]
mean survival time (MST) (Ls174t liver metastases; 1 mg/kg, qdx3, 3 cycles, 1×10^6 cells, start 18 days after implantation): 47 days | mice that died around day 48 (Ls174t liver metastases): 90% | mean survival time (MST) (Ls174t liver metastases; 3 mg/kg, qdx3, 3 cycles, 1×10^6 cells, start 18 days after implantation): 65 days | median survival (Ls174t liver metastases; qdx3, 3 cycles): 44 days | tumor growth inhibition (SW403 tumors): 40% | growth inhibition (LS411N tumors): about 20%

B1: BCAT1: nucleic acid inhibitor molecule targeting the β-catenin gene; sense strand SEQ ID NO:1, antisense strand SEQ ID NO:2 (nucleic acid)
sense: AGAAUACAAAUGAUGUAGAAACAGCC
antisense: UAGCUAUCGTGGCUGUUUCUACAUCAUUUGUAUUCUGC
modifications: chemistry not given here
growth inhibition (Hep3B tumors): 47% | delivery of BCAT1 to tumors ([1]; HCT116, DLD1, HL60): Negative: HCT116, DLD1, HL60 | delivery of the nucleic acid payload to tumors ([1]; LNP formulated, tumor types of Table I (subcutaneous, orthotopic, disseminated, metastatic xenografts, PDX, GEM)): effectively delivered | anti-tumor efficacy (RKO tumors): No efficacy | mice that died around day 48 (Ls174t liver metastases): 90% | mean survival time (MST) (Ls174t liver metastases; qdx3, 3 mg/kg, 3 cycles, start 2 weeks after implantation of 2×10^6 cells): 46 days | median survival (Ls174t liver metastases; qdx3, 3 cycles): 45 days | anti-tumor efficacy (LS174t tumors): Robust efficacy | tumor growth inhibition (SW403 tumors): 20% | anti-tumor efficacy (SW403 tumors; qdx3, 3 mg/kg, 2 cycles): Robust efficacy | extension of survival compared to control treatment groups (LS411N liver metastases): up to two-fold | time for all treated mice to die (LS411N liver metastases): about 6 months | mean survival time (MST) (LS411N liver metastases; [2]): 181 days | mice surviving at 112 days post-implant (LS411N liver metastases; [2]): 75% | tumor growth after therapy discontinued (LS411N tumors; qdX3, 3 mg/kg, discontinued after the second cycle): tumor growth resumed to a level roughly comparable to untreated subjects | tumor growth inhibition (LS411N tumors; qdx3, 0.3 mg/kg): 47% | tumor growth inhibition relative to vehicle-treated animals (LS411N tumors; qdx3, 1 mg/kg, two weekly dosing cycles, i.v.): 82% | tumor growth inhibition (LS411N tumors; qwx1, 3 mg/kg, weekly dosing): 60% | growth inhibition (LS411N tumors): about 20%
